Reference: a protein production outcome set (Wang et al. 2014)

test: label from the status in PepcDB records
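Also: failed if final PepcDB status was selected cloned or expressed and not failed if soluble or beyond.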

Row | Sequence | protein production
1 | MLSTNKFAVLAFATFVAFQAPAHAEDAVVAKVGNLEIHQSELDLAVANLDPQLAQLPDDQKKVAALSAAIDVKLLAAGATTEKLEQTDEFKKRMQYLTDRELHNAYFKKHVVDTVTPDEIKARYDKEVAALPKQEEVHARHILVKTEDEAKDIIKQLDAGKDFAELAKEKSTDPNKSEGGDLGYFSRGRMVKEFEDAAFALEKGAYSKTPVKTDFGYHVIKVEDKRDAPPPPFDQVQDQVRQLVMRDKYLALLNQAKSSAKIEISDETLRKGYDEANKQPEPGSEPPQPAPKQ | failed
2 | MLSYPRYLAVFLLIIGQSCLAFAEEQPQVGQLFKLFDSGESMPRATIEQNIALLEKLISSDDIERIEKLNQIKCWNQASDTEEEIAKALNYAEQALSQIPSTASTHFITDINLCRAWFLQLTGDINGAMEGYTKSVQSAYEHEDIKLIADARSLRGALYSYTGDFSEALDDLVTAQGLYESLNLTGWANINLTDIATSFRRYGDPESAIKYYKKLKELYLKNGNKEQVANVMSEIGIALDEMGKHEQAIEHFRFSYQYFKDQKLNIVAAINATNIAYSLIQLNRLDEAENYLNEAAPDISENEPAAYSFMKLFMGKIRNQQGRYQEALDELSAAEHAFRVMHNDRGLIQLLQLKSDIYAAMEDLPQAYHILQEFIALTKKVDDSSIAHQTTELKVKFDTSWIESENKRLIDNQKLKEQELTLLEKNKSLQLIILLLTGCILATVSLFAYKQVHRNRQLQTIALTDYLTQLPNRRHIYAQAEQYFQLALKQQIPFSIIIFDADHFKKINDNFGHEIGDQALLTIAEASKTLTTDRNLVGRIGGEEFLILLPNTDADRAWKLAHELQTLITRFGAINLPVELKLTVSAGVATLPIQSELQDQNFARLLKRADNALYEAKNAGRNCVKAAEITG | failed
3 | MLTAFTAGLLLITVSELGDKTFFIAMILAMRYPRRWVLVGVVGGLAAMTILSVLMGQIFTFLPTRYINYAEVALFLIFGTKLLWDARRIKATANLEEMEDAEKAIASGEKKLKIVPRGWGIVVESFALTFVAEWGDRTQIATIALAASNNAWGVSAGAILGHTICAVIAVMGGKFVAGRISEKTVTLIGGLLFYLFAVVSWWTKIA | failed
4 | MLTANIQAASSTRRYSDYVTRSWSHALPIGRKRINLDAIAQLAGERDIVGLQESDPGSLRSGFTNQTCYLAQRAGFHYWSHQPNRRMAGVASSANGLLSRLKPRQIHNHALPGRIPGRGVLLAKFGNGGFDSLVVAVVHLSLGVRSRMAQLVFIADLLAEYPNTILMGDFNCRADCSEMQVLYRRTRLQPPGVVIPTFPSWRPERAIDHILVSEGFYICKTEAVPAAFSDHLAVSMDLVIPQRILRLEHHHHHH | failed
5 | MLTDAHCRAAKAKDKLYRINDARGLYLEVKPNGVRAWRYRFKLCGKASWFALGDYPDLSLANAREKCDEARKLVRQGINPVQNRQLTKIKREMDASNTFETIAQEWLALKSWEPVTKSRRLGMLKRVVFPSIGKLPVRTITSAHVLDILNKTVKRGAPTVAAEAKRTMSGVFELAVATLRADTDPVWPVRKALPPNKTQHKAALTSGQVGNLLNAFDSHGGHFQTQMAFRLMWLTLTRANESVQARWDEFDLANGLWKIPKERMKARREHLLPLPRQAVSILTTMQPITGQSTYVFPNRDDRHKPMSDAAFRQALKKLGWATIYSPHGTRTTGSTRLNEMGYRSDAIEAQLAHAEPNSVRRAYNHAIYMVERAEMMQHWADKLDLWKKEASDAAI | failed
6 | MLTDMQRDSASSSTVTTEQIVYGALPLTTINEPECRAIAITSINGSATLSGVSGPMGDQTDADLLIQLRGWADAIVVGAETARKENYGPVVLPHGIKNQRQKLGRCGLPKLTLLSKSLYFDFSSELFSPDLPSELSPLVITQQPANNSEQWDQRLQKLIDVGVEVIVAPTSTNPLKIAFDALHARRLKKISIEGGPSVYRQALSLGIVDRLHLTIAPNIICPVESPLFGKISDDSFTTRLVLEMLSSSPNGLIFSRYKVIRDTLGNPTQ | not failed
7 | MLTEVSDTRIAHKKFGLFYPSVSRPSIFVEGEDRKNFLQGIASQDILKQDEKSLSYSFFLNPKARILFDAWCGNFEDKIALFPPAGTREEFVNHLKKYLFFRTKAKITDMSDHFREIRLVGPETISVLLSLFDNNFSGSSFRMLKNGGYVLIHPTSFQHNLDVGLQADLFIPIDQFETTQKSLEDFTSNKGGVLLDESSYLAYLTEKGIPLFPSELNDSFFPAEAGLDSVGVSYNKGCYVGQEPVTRLKFQGHLNRSLAGFRLEGGPFPKMEFPVTLFNPKDGNEAGILTRTSSSDILGSGIGLGYIKRNFSENGTELLLPDAQLVRVHSLPFV | not failed
8 | MLTFIVVNYNGEKYLKECLNSIINQTYRKLRVLVIDNGSTDGSRDILRNFEDYYSRFEVIRNEENLGFAKAANQGIEMANTKFVALVNNDAFLERNWAEEMLKAADDLRAGIFASKILFEDGRINSAGHAIHRGLAVMERGFLEKDEGQFDEPCYVAGACAAAAMYRRSLFEDVGLFDEDYFMYNEDVDLSLRALIRGWKILYVPTAIAYHLHSASTGFLSDFSVYYNSRNWVWSVVKNVPRDLLLREFPYFILRNFSSMLFFCLRGNFAILKSKIDAIRELRKFLEKRREVQQKVRFKAVEDYIEGLGFGKALKVARLAGVLR | failed
9 | MLTHREYFNSKADIWDSLCAPEEKAKLETIIRGLNIAPGSTVLDVGCGTGILIPYLLAAVGPAGRIVALDIAEAMLERAQSKGFPANVEFICADVVSVPYPDATFDEVICNSAFPHFPHKLKALKEMARVLKPGGRVVICHTKARETINNLHRSLGGVIAGDQIPPGSEMMGMLVAAGLTGIEIDEALDYYLASGFKAMYE | failed
10 | MLTLILAQVTTLDPARPQAEAVLAGGGRVLAVGTREELSALAPRAEVLDHRDLHLTPGLCDAHTHLVMYGASLSQLDVQGVRSVDEVRARLRERAAQTPAGEWIVGGGFLLSELGLSGYPTAADLDAVSPDHPVLLHSRDHHMIWVNSRALAAAGIHDQTPDPEGGHIVHPLGCLQENAQALVSERVPAPSESEWLAHARAGAQDLAARGYVSTHTMAFEDAAAPLALQTLAARGELPLRVWACLPHERLSAARSLGLSRVPGGLFQWGGVKFFADGALGSRTAWLHAPGFADGSGTGIALDSPDLILERGREALRLGLTPVTHAIGDRANTEVLDVYEQLRPEAEARGIRLRVEHAQHLRPEDLPRFRGLTASVQPVHLPADAAMIRELLPQREQTSYAFRSLKDAGAILAFGSDAPVAPPSVQGNFAAAVSRLGDDGLPLAPAEALTPDDVLWAYTRGPALAAGWDDEGWVKPGARAAFTLWNTIGGEARSLVL | failed
11 | MLTNIERAKLQLIDETNDMVIITKAEPLDAPNGPEVVWVNKAFENISKYKANEIIGQTPRILQGKETNQNTLKMIKEALKAQTNINVDLLNYTKDGTPYWISFSIVYLRDGQGNLCYLGAIEKDITALKNLNFKLSEKAKTDPLTNVYNQENFFIAGNEAIKNFHQNQEAVGLLFFDVDDFKGINDTQGHIYGDMILKKVAQESLKLVRKTDNVFRYGGDEFAIIFSGIDVKILERKAQQLQKKLAKSHISVSIGGTISIQSDKSINTLLARADEALYYVKANKKGLFFIAE | failed
12 | MLTPVADGVLVHQSELLRNNTVVVRGESGVLIVDPGLTTGEMGCLAEDLRQLGQPVVAGFATHPDWDHALWHADLGDVPRYGTARCSAYLRELRSEEGWQARVAEGLPPEIADETPLELFGLIVGLPAGAELIPWNGPEVRVIEHPAHAPGHAALLVEDRGVLVAGDMLSDLFVPMLDDTEHPVEDYLTGLRLLEKVADDVEVLVPGHGSVATADQVQVRIGRDREYLHALRDGRAPDDPRLGSSVEPGWEWVNDIHEGQAARMARRSERNGADG | failed
13 | MLTTLSCCCNMPVVKVNCWNNMKVQIKSITQWGGVLLLSFSSCYVNANKLIKPNILFIAVDDLKPLIRDYGTAKVQTPNIDKLASQSTVFTRAYSQYPVCGPSRMSILTGLRPESNGIMNLKDKIRDVNPSVITLPQFFKNNGYETAATGKIFDPRNTTSRSEEEVLSWSIPYQRPKHGLKGKTRLAVESIDEPDEKFVDGGILKRGKKLLKQMANKNKPFFLAVGFKKPHLPFVAPKKYYDLYSRESFDLASYQSAPEDADTTYLFHKNQELRGYKPTPIKGGEIKPYPKGKLSSAHQKELLHGYFASVSFIDSLVGELLEELEKTGQAENTVIVFWGDHGFHLGDHGLWGKHTTMEQANHVPLIIKIPGSKANRYAKPVELLDVFPSLTEAAGLSIPNNLQGTSLVSLVTGKLKSIDKVAISQYKRKGAYGYSMRTEQYRYTQWVTPSGKVVYRDLYDLINDPLETKNIINTPEGKLLEVELNKQLHTNSAGLKRLKLEHHHHHH | failed
14 | MLTTQITQTYHLTTPIISAGMAFVATPKLAAAVSNAGGMGTFSAFMSPPEELRALIRQTRSLSDRPFGIDFITAAANDDHIAICMAERVPVVIFFWSFPPLDWVTQLQNAGVKVWMQVGSLAEATQAKAQGFDAIIAQGQEGGGHNRSEASIFSLLPAICREVAPIPVIAAGGIIDGRGLVAALALGAEAVWCGTRFLASEEAYAHPEYKARVVTATVGDTTRTTLFGPEMPGQLMRVLRNLAVNQWGDRVADATKHGPTQPAIGSTILGGQALPMPKFSAILPTPDTSGDFEEMCLTAGESSGNITAIKSARDILWEMENEALDLLTYRLQAITKEQNLMAAG | failed
15 | MLTVDQLALLFVLLLGAVVSVPVGDRFGLPAPVLMTLLGIGLAVADFVPNVDIPPDLILPALLPPLLYAAVRRTSWRQFTANKRPIFLLAVALVFVTTAVVALVAGAIVPGLPIAAAVALGALVAPPDPVAATAVAGQLGLPRRLVSILEGEGLFNDVTAIVLYHVAIAAAVSGTFSLPNAVLDLVLSAVVAVAVGLALGWAANRLMDLLDDVTLQIGLTLLVPYASYVLAEELHGSGVLAVLTTALFLAEYATDADDVMTRLAGHTFWNVVDTLVTGVAFGLIGLELHNALRTASGRWGEMLGWAAAIVAVVVLVRLAYLLPATWLTKRLHAKRDYDEEIPTSWRETVVMWWAGMRGVASAALALAIPLKMDDGSPFPDRDEIVFIAFGVIMGTLVLQGLTLPWLVKRLGVRADTGSEKAFEKALAIRAAKAAKRRLREIEDVEELPEELSEQLLRRAFDIGARISPDLGDEERREAHEQRVRRMKRVRRIQGEMMSAARHEVLAARSEPGADPEIVDRVLRHLDVRSLR | failed
16 | MLTYFHPDQSLHHPRTYFSRGRMRMPQEVPERAARLVAAAFAMGFPVREPDDFGIAPIAAVHDTHYLRFLETVHREWKAMPEDWGDEAMSNIFVREPNALRGVLAQAARHLADGSCPVGEHTWRAAYWSAQSALAAAAAVRDGAPAAYALCRPPGHHARVDAAGGFCYLNNAAIAAQALRARHARVAVLDTDMHHGQGIQEIFYARRDVLYVSIHGDPTNFYPAVAGFDDERGAGEGLGYNVNLPMPHGSSEAAFFERVDDALRELRRFAPDALVLSLGFDVYRDDPQSQVAVTTDGFGRLGHLIGALRLPTVIVQEGGYHIESLEANARSFFGGFGALRG | not failed
17 | MLVCAAFSGGAGASDAGALLEAARRGDTAQVASLLERKVEVDAPSADGSTPLLLATANDHLAVARQLIEAGADVNRQNSRLDSPYLLAGAEGRLEILRLTLLHGADLKSTNRYGGTALIPACERGHVEVVKTLLQAGVDPNHVNKLGWTGLLEAILLSDGGPRHQEIVRLLIDAGADVNLADADGVSPLAHARQRGQGGIERLLLAAGAQ | failed
18 | MLVESFNPFNNLLLSSIVAAIPIILFLLCLTVFKMKGVYAAITTLIVTIIVAMAFFKLPGSIAGGATLEGFYQGIIPIGFIVIMAVWLYKIATKSGQFAIVQDSIASVSRDQRVQLLLIGFVFNGFLEGAAGFGVPIAICAVLLTQLGFKPLQAAMYCLVSNAAAGAYGAVGIPIAIVDTLNLPGGVTTSQVALIGNLTLGFISFVVPFLLMYIMDGFKGVKETFPATLVVAVTFTVLQVLIAAFAGPELADIIPGLVAMIALALFSKKWQPKNIFRINKDEKADAVPKHSIGHITYAWSPFIILTIVVMIWSLPAFKGLFEKGGALSALVVNFNVPGTMNAVTNKPNELTFNFFAQTGTAILITAIITIIIAKNMSFKTAGHLLGLTVKELWISVLTICFILAVSKITTYGGLSNAMGQGISKTGAAFPLLSPLLGWIGVFMTGSVVNNNSLFAPIQASVAEQIGTKGSLLVAANVAGGVTAKIVSPQSIAIATAAVNKVGKESELMKMAMRFSIGLLILVCIWTFICSLFIS | failed
